Data taken from the RNAGym collection of RNA variant scans (doi:10.1073/pnas.2313332121).

B1: TPR t1 (parent)
chain: GACCAAUCUGCCCUCAGAGCUCGAGAACAUCUUCGGAUGCAGAGGAGGCAGGCUUCGGUGGCGCGAUAGCGCCAACGUCCUCAACCUCCAAUGCAUCCCACCACAUGAUGAUGCCUGAAGAGCCUUGGUUUUUUG

Variants of: B1
Test: polymerase ribozyme fitness, log enrichment relative to wild type (log ratio); higher = more active; in vitro selection for triplet polymerase activity
Method in brief: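 Each subunit of a heterodimeric triplet polymerase ribozyme was represented by a PCR-built, transcribed mutant library that underwent triplicate single-round in vitro selection with frozen incubation at −7 °C. Extended constructs were recovered by gel excision, streptavidin-bead capture and RT-PCR, and Illumina sequencing of input and output libraries kept genotypes with ≥10 input reads and ≥1 read per output. Fitness is the logarithm of genotype enrichment relative to wild-type enrichment, from inverse-variance-weighted replicate averages, with a logarithm base of 2.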

Row | Variant | polymerase ribozyme fitness (log ratio)
1 | C62G G117A | -2.78
2 | G35A C89A | -5.84
3 | C20U C102A | -3.26
4 | C56U G113U | -2.72
5 | G10A C13A C70U | -1.36
6 | G48U C88U G110A | -1.01
7 | C11A C34A C88G U106C | -5.02
8 | U54A C73A U78C C102A | -1.97
9 | G69U A74C C104U | 0.0316
10 | A6U U7C C102U G127C U131G | -2.65
11 | A2U U112G | -1.44
12 | C72U C101G G120C | -1.35
13 | A46U C64U U109A C124A | -5.73
14 | G52C C53U G71U | -0.538
15 | U112A C124U | 1.1
16 | A27U C76U G77C | -3.99
17 | G44U G61A | -1.47
18 | A26U C53G G60A C80U | -4.36
19 | A18G A68U U87G U109A | -5.24
20 | A27U C62U U125A | -3.89
21 | G45U A68G | -4.43
22 | G42A U59G C73U U112G C123A | -4.46
23 | C4U G113U C124U | -4.72
24 | C15U | -1.37

Row | Variant | polymerase ribozyme fitness (log ratio)
25 | U32C C104U | 0.382
26 | C3A C22G A37G G71A A111G | -6.05
27 | G42C G128A | -3.12
28 | C13U G71U U116G | -1.86
29 | A41G G42C A46C U54A G60U G110A | -4.92
30 | C49G C56G C88U G120C G127A | -2.45
31 | C12G G61U | 0.811
32 | C12A A16G U81C G120C | 0.152
33 | U21C G60C | -0.312
34 | U7C C49A G61U A75U U96A | -0.699
35 | C79A U106G | -3.37
36 | C3A A37U C82U U112C | -0.239
37 | G93U A100U | -1.72
38 | A16U C49A A121U U129G | -0.0419
39 | U7G G61A | 0.0552
40 | C8A A18C C34G A43U | -7.06
41 | A2U U38G C70U C98U G128U | -6.66
42 | A24G A46C A111C U130G | -3.43
43 | A27U C62A | -4.1
44 | G61A A83U G117C | -4.17
45 | C8U A37U C70A U112C | 0.338
46 | C101A U109A | -5.05
47 | G69A G113U | -5.37
48 | U7C A74G C79A G93A U106C G117U U129C U130C | -5.05

Row | Variant | polymerase ribozyme fitness (log ratio)
49 | A37C A46G C49A C72A | -0.663
50 | A27U C64U U78C | -3.83
51 | U7A C8A C11G G47U G57U C85A | -2.04
52 | C12A A18G C20U A37U A50C C64U U92A | -4.28
53 | C94U G117C | -3.83
54 | C79U C88U C97U | -0.508
55 | G44A G51U A121G | -3.43
56 | G39U C70U G117C G128A | -5.92
57 | C20A A41C G71A C82A | -5.71
58 | A6G C15U C89U U96A | -0.964
59 | C53U U81C U96A | -2.89
60 | A37U C62U U96G | -0.183
61 | C13A C22G G69U G120U | -1.67
62 | C34U C102U | -2.22
63 | G52U A121G | 1.06
64 | U30C G61A | -2.02
65 | C13U A16G G63A U87A C98A C123G | -6.74
66 | C70U C86G | -1.54
67 | G45A G52C G57U | -2.04
68 | C49G C82U G93U G117U | -4.66
69 | C12U U112A | 1.23
70 | C13G C114A | -2.59
71 | C72U C82A A84C A111C | 0.731
72 | A121U U129G | 1.22

Row | Variant | polymerase ribozyme fitness (log ratio)
73 | C13U A18U G35U A50G G71A C124G | -7.8
74 | C72A C76G C101A C115A | -1.47
75 | A46G C56A A84C C104A C115U A118U A119U | -3.57
76 | U116G G120C | -0.715
77 | G42C G63C C73A | -3.92
78 | C20A G117U U133A | -4.77
79 | C11A G61A C62A C80U G113C | -7.76
80 | G10U C13G G120C | 1.66
81 | G58C C101U | -0.386
82 | C13G C56U C86U U130A | -3.33
83 | C73G A121C G122A | 0.495
84 | A50U C88U | -1.71
85 | A5U G42U A46G C72U U78G | -1.17
86 | C22A C53U C64U C124U | -3.7
87 | C3A U55C G61A C86U | -2
88 | A18C A111U | -5.16
89 | C31U C73G C89U | -5.24
90 | A2U A27G G61A C104A U112C G122U | -2.93
91 | A6C G48U C72U U87C G110U | -2.52
92 | A5C U87C C88A G120U | -0.6
93 | G60A C86A | -0.942
94 | G117A C124U | -0.187
95 | G61U A75C | -0.117
96 | U30C C56G C70U C79A C89U C98U C101A G110C | -6.87

Row | Variant | polymerase ribozyme fitness (log ratio)
97 | C8G A68U G77C G120C | -7.19
98 | U30C C86A G135C | -4.17
99 | U21G A46U G69U G117C | -4.95
100 | A26U A37C C72G G77A C124G | -2.81
101 | C8G A50U U54C G69U U106A G117A | 0.535
102 | C11G G60A | 0.811
103 | A6C A43G G63U G69A G117C | -5.96
104 | A46U G60C C114A | -2.44
105 | G69U G71U G120U U126A | -0.887
106 | U81C C88A A90U C104G G120U | -7.44
107 | A5C G44C A46U U106C | -2.77
108 | G47C U81G G93A C101U | -5.71
109 | G52U U106C | -1.2
110 | G51U G57A G65U A121U | -7.73
111 | C34A G110U A118U | -6.14
112 | G57C G61A G110U C115A | -2.7
113 | G63A A66U U106A G117A | -4.86
114 | G47C G61U C114U | -3.31
115 | C22G | -2.97
116 | C40U C97U C102A A111G | -2.88
117 | G61A A84C C88G | 0.0148
118 | G117A G135U | -1.92
119 | U87G U106A A108C | -2.16
120 | G10U A46C C70G C94U U133A G135U | -4.06

Row | Variant | polymerase ribozyme fitness (log ratio)
121 | C11U C12U A29U G110U G122C C123A | -0.893
122 | G61A C88G G120A A121C | -1.75
123 | C101U C104G U109G | -6.55
124 | C13U A16G A121U U129A | 1.78
125 | G10U U30C C124G | -2.38
126 | G39A C70G G120C G122U | -3.09
127 | U55G G69C | -1.57
128 | G58A G60A A68G A100U C115A | -5.02
129 | A37U C85U | -1.29
130 | G10U G51C | -3.01
131 | G23A | -4.43
132 | G36C G45C A111C G122A | -2.97
133 | C70A U106C | -2.99
134 | A2U C89A C115A | -3.43
135 | C3G C40G | -1.82
136 | C12U A18U G19C G35A G48A C72A U112A | -6.64
137 | A5C C12A U96C G128C | -2.92
138 | C20U U116G | -4.59
139 | C53G C115A | -0.163
140 | G47C G61U U130A | -2.36
141 | C12U G17A U59A G61C C124A | -1.65
142 | U9C C12G C53G C62U | -0.499
143 | G10U C11G U14A A37G C76U G93C C102A | -5.35
144 | A2G C62A | -0.128

Row | Variant | polymerase ribozyme fitness (log ratio)
145 | A16G G39A C114U | -4.17
146 | U14A A29U | -3.64
147 | C8G A46G C56A A84C C104A C115U A118U A119U | -4.77
148 | U9C C70G | -1.43
149 | C28G C70A A90G G117U | -5.76
150 | U7G U14G C34G C72U | -5.84
151 | C53U G69C | -1.01
152 | A29C U55G G60U A75U | -2.08
153 | C34G G48A G52C A84U G120A | -6.12
154 | C12U G36C A46U U112C G127U | 0.627
155 | U9A C40G G42U | -1.9
156 | A5C C82A C101G | -3.77
157 | C11A C94U | -1.19
158 | C72G G93U | -1.16
159 | G47U G69A | -4.35
160 | A18G C20G C31A G60C C99A G110U | -1.91
161 | A16U U32A A46U A66C A103C A111G | -7.56
162 | U78C C101U | -0.647
163 | C76U U106C G128C | -3.51
164 | C11A U54G | -2.05
165 | G47A A50G | -1.37
166 | G47U U78G U96A | -1.79
167 | G47U C76U | -1.17
